Assay results: US20150259426A1 (Novartis, published 2015)
Values belong to the binder of their own block, whether it stands above or below them.

Experiments:
[1] = target: T1, cell-bound human DR5 (Colo205 and other human cell lines) (human, UniProt O14763 56-440); assay: cell-based or functional assay
[2] = target: T2, CD137 extracellular domain (TNFRSF9, Glu19-Ile188) (UniProt Q07011 19-188); assay: ELISA, receptor ECD from E. coli lysate on His capture plate;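 further: binding specificity screen across TNF receptor superfamily ectodomains, anti-V5 detection as expression reference, primary antibody incubation 1 h at room temperature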
T2 construct: range 19-188; ECD cloned into pBadThioTopo; E. coli lysate on His capture plates

hGITR = target: T3, hGITR (human, UniProt Q9Y5U5); assay: as above
T3 construct: extracellular domain, E. coli lysate captured on a His capture plate; Target named only on the sheet; the construct is not described in the text
T3 sequence (extracellular domain, looked up): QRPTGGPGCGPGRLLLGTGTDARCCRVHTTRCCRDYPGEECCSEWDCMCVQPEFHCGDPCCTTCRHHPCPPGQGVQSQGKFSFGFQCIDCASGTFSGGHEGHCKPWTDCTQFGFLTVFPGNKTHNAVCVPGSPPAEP

[3] = target: T4, CD27 extracellular domain (TNFRSF7, Thr21-Ser187) (UniProt P26842 21-187); assay: as above
T4 construct: range 21-187; ECD cloned into pBadThioTopo; E. coli lysate on His capture plates

[4] = target: T5, DcR3 (TNFRSF6B, Val27-Ala176) (UniProt O95407 27-176); assay: as above
T5 construct: range 27-176; ECD cloned into pBadThioTopo; E. coli lysate on His capture plates
T5 sequence (looked up): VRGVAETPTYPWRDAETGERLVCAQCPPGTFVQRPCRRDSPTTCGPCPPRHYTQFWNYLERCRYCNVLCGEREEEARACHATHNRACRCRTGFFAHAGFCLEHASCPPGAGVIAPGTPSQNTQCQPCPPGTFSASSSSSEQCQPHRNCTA

[5] = target: T6, TNFR1 extracellular domain (TNFRSF1A, Leu34-Thr211) (UniProt P19438 34-211); assay: as above
T6 construct: range 34-211; ECD cloned into pBadThioTopo; E. coli lysate on His capture plates
T6 sequence (looked up): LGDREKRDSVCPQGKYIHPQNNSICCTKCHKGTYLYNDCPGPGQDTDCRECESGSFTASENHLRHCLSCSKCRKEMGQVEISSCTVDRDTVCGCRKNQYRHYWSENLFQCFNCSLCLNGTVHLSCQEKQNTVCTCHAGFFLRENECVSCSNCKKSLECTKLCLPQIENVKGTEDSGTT

[6] = target: T7, OX40 extracellular domain (TNFRSF4, Gly33-Gly212) (UniProt P43489 33-212); assay: as above
T7 construct: ECD cloned into pBadThioTopo; E. coli lysate on His capture plates
T7 sequence (looked up): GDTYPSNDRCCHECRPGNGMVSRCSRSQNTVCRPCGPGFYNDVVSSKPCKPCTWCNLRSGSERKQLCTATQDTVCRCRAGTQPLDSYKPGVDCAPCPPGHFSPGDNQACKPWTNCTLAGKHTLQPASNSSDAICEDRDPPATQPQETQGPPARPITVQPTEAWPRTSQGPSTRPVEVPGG

[7] = target: T8, DcR2 extracellular domain (TNFRSF10D, Thr57-Thr198) (UniProt Q9UBN6 57-198); assay: as above
T8 construct: range 57-198; ECD cloned into pBadThioTopo; E. coli lysate on His capture plates
T8 sequence (looked up): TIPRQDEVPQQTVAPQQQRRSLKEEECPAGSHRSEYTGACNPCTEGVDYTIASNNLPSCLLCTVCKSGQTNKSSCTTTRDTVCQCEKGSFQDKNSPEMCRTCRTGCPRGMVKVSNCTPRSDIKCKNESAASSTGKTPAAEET

[8] = target: T9, OPG (TNFRSF11B, Lys17-Ile197) (UniProt O00300 17-197); assay: as above
T9 construct: range 17-197; ECD cloned into pBadThioTopo; E. coli lysate on His capture plates
T9 sequence (looked up): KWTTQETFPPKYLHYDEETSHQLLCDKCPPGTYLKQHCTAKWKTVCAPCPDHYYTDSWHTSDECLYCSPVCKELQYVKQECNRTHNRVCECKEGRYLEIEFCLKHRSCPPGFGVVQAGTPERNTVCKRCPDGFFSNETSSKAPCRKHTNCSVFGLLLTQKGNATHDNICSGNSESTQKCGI

[9] = target: T10, CD40 extracellular domain (TNFRSF5, Val18-Leu192) (UniProt P25942 18-192); assay: as above
T10 construct: range 18-192; ECD cloned into pBadThioTopo; E. coli lysate on His capture plates

[10] = target: T11, FAS extracellular domain (TNFRSF6, Ser20-Gly175) (UniProt P25445 20-175); assay: as above
T11 construct: ECD cloned into pBadThioTopo; E. coli lysate on His capture plates
T11 sequence (looked up): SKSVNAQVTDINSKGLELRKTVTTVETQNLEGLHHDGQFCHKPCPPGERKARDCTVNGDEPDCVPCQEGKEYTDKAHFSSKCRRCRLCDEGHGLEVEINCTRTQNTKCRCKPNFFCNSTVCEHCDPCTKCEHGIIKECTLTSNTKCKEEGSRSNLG

[11] = target: T12, BAFFR extracellular domain (TNFRSF13C, Met1-Gly64) (UniProt Q96RJ3 1-64); assay: as above
T12 construct: range 1-64; ECD cloned into pBadThioTopo; E. coli lysate on His capture plates

[12] = target: T13, TNFR3 extracellular domain (TNFRSF3, Pro30-Thr224) (UniProt P36941 30-224); assay: as above
T13 construct: range 30-224; ECD cloned into pBadThioTopo; E. coli lysate on His capture plates

[13] = target: cynomolgus DR5-Fc fusion protein (cyno DR5 amino acids 56 to 213 fused with human IgG1 Fc) (cynomolgus; human); assay: SPR (Biacore), CM5 chip coated with cynomolgus DR5-Fc, 1 to 100 nM NB construct
[14] = target: T1, cell-bound human DR5 (Colo205 and other …); assay: cell-based or functional assay; remark: listed apart in the source

T4 sequence (P26842 21-187 limits assumed): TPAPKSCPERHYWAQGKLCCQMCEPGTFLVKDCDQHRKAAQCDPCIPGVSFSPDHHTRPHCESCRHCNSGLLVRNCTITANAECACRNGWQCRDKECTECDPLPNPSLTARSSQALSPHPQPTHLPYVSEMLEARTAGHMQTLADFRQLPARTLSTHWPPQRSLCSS
T12 sequence (Q96RJ3 1-64 limits assumed): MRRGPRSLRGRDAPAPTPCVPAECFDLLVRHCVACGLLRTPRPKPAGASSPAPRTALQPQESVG
T2 sequence (Q07011 19-188 limits assumed): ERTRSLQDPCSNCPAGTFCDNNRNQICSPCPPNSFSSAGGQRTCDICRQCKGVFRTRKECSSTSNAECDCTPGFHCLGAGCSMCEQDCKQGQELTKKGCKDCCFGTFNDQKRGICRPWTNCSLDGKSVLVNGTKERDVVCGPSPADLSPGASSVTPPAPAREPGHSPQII
T10 sequence (P25942 18-192 limits assumed): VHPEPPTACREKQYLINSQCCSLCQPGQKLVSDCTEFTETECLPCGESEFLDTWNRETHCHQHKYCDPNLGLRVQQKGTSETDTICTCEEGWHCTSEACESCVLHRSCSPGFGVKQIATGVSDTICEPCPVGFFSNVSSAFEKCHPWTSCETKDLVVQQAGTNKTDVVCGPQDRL
T13 sequence (P36941 30-224 limits assumed): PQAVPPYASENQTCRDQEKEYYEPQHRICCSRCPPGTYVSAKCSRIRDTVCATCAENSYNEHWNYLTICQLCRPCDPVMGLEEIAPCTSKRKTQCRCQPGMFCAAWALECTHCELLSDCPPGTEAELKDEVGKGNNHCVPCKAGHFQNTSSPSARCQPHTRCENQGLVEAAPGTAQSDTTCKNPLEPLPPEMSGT

binding result [2]: no binding (tested: not stated) | binding result (hGITR): no binding (tested: not stated) | binding result [3]: no binding (tested: not stated) | binding result [4]: no binding (tested: not stated) | binding result [5]: no binding (tested: not stated) | binding result [6]: no binding (tested: not stated) | binding result [7]: no binding (tested: not stated) | binding result [8]: no binding (tested: not stated) | binding result [9]: no binding (tested: not stated) | binding result [10]: no binding (tested: not stated) | binding result [11]: no binding (tested: not stated) | binding result [12]: no binding (tested: not stated) | Kd [13]: < 0.03 nM
B1: 7A12 tri (trivalent anti-DR5 NB construct) (VHH)
chain: EVQLVESGGGLVQAGGSLRLSCAASGRTFSNYAMGWFRQAPGKEREFVAALNWSGGSTYYVDSVKGRFTISRDNAKNTVYLQMNSLKPEDTAVYYCAAAGSFSLGGRPYGDDYWGKGTLVTVSSGGGGSGGGGSGGGGSGGGGSGGGGSGGGGSGGGGSEVQLVESGGGLVQAGGSLRLSCAASGRTFSNYAMGWFRQAPGKEREFVAALNWSGGSTYYVDSVKGRFTISRDNAKNTVYLQMNSLKPEDTAVYYCAAAGSFSLGGRPYGDDYWGKGTLVTVSSGGGGSGGGGSGGGGSGGGGSGGGGSGGGGSGGGGSEVQLVESGGGLVQAGGSLRLSCAASGRTFSNYAMGWFRQAPGKEREFVAALNWSGGSTYYVDSVKGRFTISRDNAKNTVYLQMNSLKPEDTAVYYCAAAGSFSLGGRPYGDDYWGKGTLVTVSS
notes: three VHH units in one chain joined by GlySer linkers; not shown: CMYC-HIS6 tag
IC50, cell survival, Colo205 [1]: 0.12 nM | IC50, cell survival, A549 [14]: ≥ 20 nM | IC50, cell survival, ARPE-19 [14]: ≥ 20 nM | IC50, cell survival, H226 [14]: 0.03 nM | IC50, cell survival, H2052 [14]: 0.064 nM | IC50, cell survival, H2122 [14]: 0.008 nM | IC50, cell survival, Huvec [14]: ≥ 20 nM | IC50, cell survival, IMR-90 [14]: ≥ 20 nM | IC50, cell survival, Jurkat [14]: ≥ 20 nM | IC50, cell survival, M30 [14]: ≥ 20 nM | IC50, cell survival, MiaPaCa-2 [14]: ≥ 20 nM | IC50, cell survival, Molt4 [14]: ≥ 20 nM | IC50, cell survival, Panc-1 [14]: ≥ 20 nM

binding result [2]: no binding (tested: not stated) | binding result (hGITR): no binding (tested: not stated) | binding result [3]: no binding (tested: not stated) | binding result [4]: no binding (tested: not stated) | binding result [5]: no binding (tested: not stated) | binding result [6]: no binding (tested: not stated) | binding result [7]: no binding (tested: not stated) | binding result [8]: no binding (tested: not stated) | binding result [9]: no binding (tested: not stated) | binding result [10]: no binding (tested: not stated) | binding result [11]: no binding (tested: not stated) | binding result [12]: no binding (tested: not stated) | Kd [13]: < 0.3 nM
B2: 11H6 tri (trivalent anti-DR5 NB construct) (VHH)
chain: EVQLVESGGGLVQPGGSLRLSCAASGTFDKINNMGWYRQAPGKQRDLVAQITPGGITDYADSVKGRFTISRDNAKDTMYLQMNSLKPEDTAVYFCNAEILKRAYIDVYVNYWGQGTQVTVSSGGGGSGGGGSGGGGSGGGGSGGGGSGGGGSGGGGSEVQLVESGGGLVQPGGSLRLSCAASGTFDKINNMGWYRQAPGKQRDLVAQITPGGITDYADSVKGRFTISRDNAKDTMYLQMNSLKPEDTAVYFCNAEILKRAYIDVYVNYWGQGTQVTVSSGGGGSGGGGSGGGGSGGGGSGGGGSGGGGSGGGGSEVQLVESGGGLVQPGGSLRLSCAASGTFDKINNMGWYRQAPGKQRDLVAQITPGGITDYADSVKGRFTISRDNAKDTMYLQMNSLKPEDTAVYFCNAEILKRAYIDVYVNYWGQGTQVTVSS
notes: as for B1
IC50, cell survival, Colo205 [1]: 0.0458 nM | IC50, cell survival, A549 [14]: ≥ 20 nM | IC50, cell survival, ARPE-19 [14]: ≥ 20 nM | IC50, cell survival, H226 [14]: ≥ 20 nM | IC50, cell survival, H2052 [14]: 0.36 nM | IC50, cell survival, H2122 [14]: 0.012 nM | IC50, cell survival, Huvec [14]: ≥ 20 nM | IC50, cell survival, IMR-90 [14]: ≥ 20 nM | IC50, cell survival, Jurkat [14]: ≥ 20 nM | IC50, cell survival, M30 [14]: ≥ 20 nM | IC50, cell survival, MiaPaCa-2 [14]: ≥ 20 nM | IC50, cell survival, Molt4 [14]: ≥ 20 nM | IC50, cell survival, Panc-1 [14]: ≥ 20 nM

binding result [2]: no binding (tested: not stated) | binding result (hGITR): no binding (tested: not stated) | binding result [3]: no binding (tested: not stated) | binding result [4]: no binding (tested: not stated) | binding result [5]: no binding (tested: not stated) | binding result [6]: no binding (tested: not stated) | binding result [7]: no binding (tested: not stated) | binding result [8]: no binding (tested: not stated) | binding result [9]: no binding (tested: not stated) | binding result [10]: no binding (tested: not stated) | binding result [11]: no binding (tested: not stated) | binding result [12]: no binding (tested: not stated) | Kd [13]: < 0.2 nM
B3: 11D1 tri (trivalent anti-DR5 NB construct) (VHH)
chain: EVQLVESGGGLVQPGGSLRLSCAASGSIDSINNMGWYRQAPGKQRELVAEITPRGRTNYADSEKSRFTISRDNAKRTVNLQMNSLKPEDTAVYYCNAEVRERGTSWYRPDYWGQGTQVTVSSGGGGSGGGGSGGGGSGGGGSGGGGSGGGGSGGGGSEVQLVESGGGLVQPGGSLRLSCAASGSIDSINNMGWYRQAPGKQRELVAEITPRGRTNYADSEKSRFTISRDNAKRTVNLQMNSLKPEDTAVYYCNAEVRERGTSWYRPDYWGQGTQVTVSSGGGGSGGGGSGGGGSGGGGSGGGGSGGGGSGGGGSEVQLVESGGGLVQPGGSLRLSCAASGSIDSINNMGWYRQAPGKQRELVAEITPRGRTNYADSEKSRFTISRDNAKRTVNLQMNSLKPEDTAVYYCNAEVRERGTSWYRPDYWGQGTQVTVSS
notes: as for B1
IC50, cell survival, Colo205 [1]: 0.111 nM | IC50, cell survival, A549 [14]: ≥ 20 nM | IC50, cell survival, ARPE-19 [14]: ≥ 20 nM | IC50, cell survival, H226 [14]: 0.03 nM | IC50, cell survival, H2052 [14]: 0.015 nM | IC50, cell survival, H2122 [14]: 0.004 nM | IC50, cell survival, Huvec [14]: ≥ 20 nM | IC50, cell survival, IMR-90 [14]: ≥ 20 nM | IC50, cell survival, Jurkat [14]: ≥ 20 nM | IC50, cell survival, M30 [14]: ≥ 20 nM | IC50, cell survival, MiaPaCa-2 [14]: ≥ 20 nM | IC50, cell survival, Molt4 [14]: ≥ 20 nM | IC50, cell survival, Panc-1 [14]: ≥ 20 nM
